One molecule from patent US20230374078A1 (Janssen / Centocor, published 2023) can be followed below.

In the test the target is C97ZA_SOSIP_L556P_T651F_M535N (HIV-1 clade C strain C97ZA). Description: AlphaLISA on crude cell culture supernatant. For orientation: In Alpha technology, singlet oxygen from a donor bead excites a nearby acceptor bead.

B1: mAb PGT145 (antibody, V domains shown)
VH: QVQLVQSGAEVKKPGSSVKVSCKASGNSFSNHDVHWVRQATGQGLEWMGWMSHEGDKTGLAQKFQGRVTITRDSGASTVYMELRGLTADDTAIYYCLTGSKHRLRDYFLYNEYGPNYEEWGDYLATLDVWGHGTAVTVSS
VL: EVVITQSPLFLPVTPGEAASLSCKCSHSLQHSTGANYLAWYLQRPGQTPRLLIHLATHRASGVPDRFSGSGSGTDFTLKISRVESDDVGTYYCMQGLHSPWTFGQGTKVEIKR
As for B1, the “trimer yield (PGT145 AlphaLISA signal), fold over the C97ZA_SOSIP backbone” value was 5 fold.
